# Assay results as given in publication PMC11336944, “CWF19L2 is Essential for Male Fertility and Spermatogenesis by Regulating Alternative Splicing” (Advanced Science, 2024).
# Target: T1, PRPF8 (mouse (endogenous in testis), UniProt Q99PV0 1-2335)
# T1 construct: PRPF8 (pre-mRNA-processing-splicing factor 8), mouse, endogenous in testis and sorted germ cells; also called spliceosome skeleton marker PRPF8; source: endogenous, PD10 WT mouse testis extract; endogenous, lysate of sorted germ cells from Cwf19l2‐SKO and control mice
# Assay: co-IP; PRPF8 antibody immunoprecipitation from sorted germ cells of Cwf19l2-SKO mice (CWF19L2 deleted in germ cells), immunoblotting, bands quantified against control mice; IgG as negative control
# Details: partners not purified
binder,measurement,value
"PRPF43 (natural protein, mouse (endogenous in testis), UniProt O35286 1-795, looked up, PRPF43 / PRP43 as printed, mouse, endogenous in testis and sorted germ cells; also called PRP43; ILS complex marker PRPF43; source: endogenous, PD10 WT mouse testis extract; endogenous, lysate of sorted germ cells from Cwf19l2‐SKO and control mice) MSKRHRLDLGEDYPSGKKRAGTDGKDRERDRDREDRSKDRDRERDRGDREREREKEKEKELRASTNAMLISAGLPPLKASHSAHSTHSAHSTHSTHSAHSTHTGHTGHTSLPQCINPFTNLPHTPRYYDILKKRLQLPVWEYKDRFTDILVRHQSFVLVGETGSGKTTQIPQWCVEYMRSLPGPKRGVACTQPRRVAAMSVAQRVADEMDVMLGQEVGYSIRFEDCSSAKTILKYMTDGMLLREAMNDPLLERYGVIILDEAHERTLATDILMGVLKEVVRQRSDLKVIVMSATLDAGKFQIYFDNCPLLTIPGRTHPVEIFYTPEPERDYLEAAIRTVIQIHMCEEEEGDLLLFLTGQEEIDEACKRIKREVDDLGPEVGDIKIIPLYSTLPPQQQQRIFEPPPPKKQNGAIGRKVVVSTNIAETSLTIDGVVFVIDPGFAKQKVYNPRIRVESLLVTAISKASAQQRAGRAGRTRPGKCFRLYTEKAYKTEMQDNTYPEILRSNLGSVVLQLKKLGIDDLVHFDFMDPPAPETLMRALELLNYLAALNDDGDLTELGSMMAEFPLDPQLAKMVIASCDYNCSNEVLSITAMLSVPQCFVRPTEAKKAADEAKMRFAHIDGDHLTLLNVYHAFKQNHESVQWCYDNFINYRSLMSADNVRQQLSRIMDRFNLPRRSTDFTSRDYYINIRKALVTGYFMQVAHLERTGHYLTVKDNQVVQLHPSTVLDHKPEWVLYNEFVLTTKNYIRTCTDIKPEWLVKIAPQYYDMSNFPQCEAKRQLDRIIAKLQSKEYSQY","fold PRPF43 in the PRPF8 co-IP, control over Cwf19l2-SKO, normalised to PRPF8",1.5 times
